Target: the molecule itself
Experiment: cryo-EM structure; KvAP(12-282) tetramer purified as a complex with 6E1 Fab; 20 mM Tris-HCl pH 8.0, 150 mM KCl, 0.06% digitonin; C4 symmetry applied; final map ~5.9 Å

B1: KvAP, voltage-gated K+ channel from Aeropyrum pernix (residues 12-282) (natural protein, UniProt Q9YDF8 25-295, looked up)
chain: GGRVRNIGDVMEHPLVELGVSYAALLSVIVVVVEYTMQLSGEYLVRLYLVDLILVIILWADYAYRAYKSGDPAGYVKKTLYEIPALVPAGLLALIEGHLAGLGLFRLVRLLRFLRILLIISRGSKFLSAIADAADKIRFYHLFGAVMLTVLYGAFAIYIVEYPDPNSSIKSVFDALWWAVVTATTVGYGDVVPATPIGKVIGIAVMLTGISALTLLIGTVSNMFQKILVGEPEPSCSPAKLAEMVSSMSEEEFEEFVRTLKNLRRLENSMK
notes: KvAP, voltage-gated potassium channel of Aeropyrum pernix, residues 12-282; In the cryo-EM sample the tetramer carried 6E1 Fab fragments on its voltage sensors; also called KvAP tetramer
How did the “stoichiometry N” value turn out when B1 was run?
The value was 4.

Source: article PMC6882556, “Cryo-EM structure of the KvAP channel reveals a non-domain-swapped voltage sensor topology” (eLife, 2019)
